Publication PMC7961094, “Development of a colorimetric α-ketoglutarate detection assay for prolyl hydroxylase domain (PHD) proteins” (The Journal of Biological Chemistry, 2021)
Several values for one entry are separate records, joined by “and”; a condition that tells them apart may be missing. Equal values may be shown once.

Columns and labels:
[1] = target: MBP-HA-PHD3 (full-length human prolyl hydroxylase domain protein 3) (human) (UniProt Q9H6Z9)
[2] = target: MBP-HA-PHD3 (full-length human prolyl hydroxylase domain protein 3) (human) (UniProt Q9H6Z9); remark: listed apart in the source
[3] = substrate: CC[C@H](C)[C@H](NC(=O)[C@H](Cc1ccc(O)cc1)NC(=O)[C@@H]1CCCN1C(=O)[C@H](C)NC(=O)[C@H](CC(C)C)NC(=O)[C@H](CCSC)NC(=O)[C@H](CCC(=O)O)NC(=O)[C@H](CC(C)C)NC(=O)[C@H](CC(=O)O)NC(=O)[C@H](CC(C)C)NC(=O)[C@@H](N)CC(=O)O)C(=O)N1CCC[C@H]1C(=O)N[C@@H](CCSC)C(=O)N[C@@H](CC(=O)O)C(=O)N[C@@H](CC(=O)O)C(=O)N[C@@H](CC(=O)O)C(=O)N[C@@H](Cc1ccccc1)C(=O)N[C@@H](CCC(N)=O)C(=O)N[C@@H](CC(C)C)C(=O)O; experiment: purified protein, by the assay type; conditions: pH 7.0, 37.0 °C
[4] = substrate: O=C(O)CCC(=O)C(=O)O; experiment: purified protein, by the assay type; conditions: pH 7.0, 37.0 °C
[5] = other: PHD3, HIF-1α CODD substrate, This work (Table 2)

B1: synthetic HIF-1α peptide encompassing the P564 residue (HIF-1α CODD, 19-mer) (peptide)
peptide: DLDLEMLAPYIPMDDDFQL
For B1, the Km (app; substrate) of PHD3 for the HIF-1α peptide, initial rates of α-ketoglutarate consumption in the 2,4-DNPH α-KG assay (10 μM PHD3, 37 °C, pH 7.0) [1] was 0.024 mM.

B2: synthetic ACC2 peptide encompassing the P450 residue (peptide)
peptide: ERIGFPLMIKASEGGGGK
With B2 the Km of PHD3 for the ACC2 P450 peptide, initial rates of α-ketoglutarate consumption in the 2,4-DNPH α-KG assay (10 μM PHD3) [2] was 41.2 µM.

B3: PHD2_181-426 (Homo sapiens) (protein)
chain: PNGQTKPLPALKLALEYIVPCMNKHGICVVDDFLGKETGQQIGDEVRALHDTGKFTDGQLVSQKSDSSKDIRGDKITWIEGKEPGCETIGLLMSSMDDLIRHCNGKLGSYKINGRTKAMVACYPGNGTGYVRHVDNPNGDGRCVTCIYYLNKDWDAKVSGGILRIFPEGKAQFADIEPKFDRLLFFWSDRRNPHEVQPAYATRYAITVWYFDADERARAKVKYLTGEKGVRVELNKPSDSVGKDVF
B3 was tested, and the Km ([3]; other: increasing HIF-1α peptide (P564), saturating concentrations of all other reagents, 3 μM PHD2) was 5.2 ± 0.9 µM and 5.192 ± 0.940 µM and the Km ([4]; other: increasing α-ketoglutarate, 100 μM peptide substrate, 3 μM PHD2) was 12.0 ± 3.0 µM and 11.970 ± 3.006 µM.

B4: PHD3 (Homo sapiens) (protein)
chain: MPLGHIMRLDLEKIALEYIVPCLHEVGFCYLDNFLGEVVGDCVLERVKQLHCTGALRDGQLAGPRAGVSKRHLRGDQITWIGGNEEGCEAISFLLSLIDRLVLYCGSRLGKYYVKERSKAMVACYPGNGTGYVRHVDNPNGDGRCITCIYYLNKNWDAKLHGGILRIFPEGKSFIADVEPIFDRLLFFWSDRRNPHEVQPSYATRYAMTVWYFDAEERAEAKKKFRNLTRKTESALTED
B4 showed a Km [3, 5] of 24.03 ± 5.964 µM, a kcat [3, 5] of 0.06062 ± 0.00278 s⁻¹ and a kcat/Km [3, 5] of 2523 ± 466 M⁻¹ s⁻¹. It also gave a Km ([3]; other: increasing HIF-1α peptide (P564), saturating concentrations of all other reagents, PHD3) of 24.0 ± 6.0 µM, a Km [4, 5] of 43.29 ± 7.295 µM and a Km ([4]; other: increasing α-ketoglutarate, 100 μM peptide substrate, 10 μM PHD3) of 43.3 ± 7.3 µM.
